Results on three molecules are retold here after PMC10412687.

Assay [1] deals with RNase E C-terminal domain (residues 451-898) with C-terminal eYFP (Caulobacter crescentus). The experiment in a line: partitioning of a fluorescent client into condensates (fluorescence microscopy), peptide competition; PNPase incubated with peptide (GWW or scrambled, 0 to 200 µM) before adding RNase E to form droplets; 20 mM Tris pH 7.5, 1 mM MgCl2, 10 mM Na2HPO4 pH 7.5, 100 mM NaCl (120 mM NaCl in Fig. S2), 10% PEG 8000 (Figs. S2, S3).

Assay [2] shares this target. The assay is described as follows: partitioning of a fluorescent client into condensates (fluorescence microscopy); RNase E CTD condensates as scaffold, PNPase-mCherry variants as clients; 20 mM Tris pH 7.5, 20 mM MgCl2, 4 mM Na2HPO4 pH 7.5, 70 mM NaCl, 0.5 mM DTT; 30 min at room temperature; partitioning ratio (Fig. 3).
Assay [3] has the same target. The experiment in a line: partitioning of a fluorescent client into condensates (fluorescence microscopy); 20 µM RNase E CTD-eYFP (or ∆PNP-BS) condensates as scaffold, mCherry-labelled client; 20 mM Tris pH 7.5, 1 mM MgCl2, 10 mM Na2HPO4 pH 7.5, 100 mM NaCl, 10% PEG 8000; 30 min at room temperature; partitioning ratio = mean droplet signal / mean non-droplet signal (Figs. 2, S1).

Positions count from the first letter of the chain named. Names and notes keep the numbering of the source.

With “PNPase-mCherry as used in the peptide competition and poly(A) recruitment microscopy (from UniProt Q9AC32 1-712) (enzyme)”, in assay [1], the partitioning ratio (without peptide) stood at 2.8 and the partitioning ratio with 100 µM GWW peptide is 1.7.

B1: PNPase-S439A/S440A/S441A-mCherry (PNPase active site mutant) (enzyme)
chain: MFDIKRKTIEWGGKTLVLETGRIARQADGAVLATMGETVVLATAVFAKSQKPGQDFFPLTVNYQEKTFAAGKIPGGFFKREGRPSEKETLVSRLIDRPIRPLFVKGFKNEVQVVVTVLQHDLENDPDILGMVAASAALCLSGAPFMGPIGAARVGWVDGAYVLNPTLDEMKESKMDLVVAGTADAVMMVESEIQELSEEIVLGGVNFAHQQMQAVIDAIIDLAEHAAKEPFAFEPEDTDAIKAKMKDLVGADIAAAYKIQKKQDRYEAVGAAKKKAIAALGLSDENPTGYDPLKLGAIFKELEADVVRRGILDTGLRIDGRDVKTVRPILGEVGILPRTHGSALFTRGETQAIVVATLGTGDDEQFIDALEGTYKESFLLHYNFPPYSVGETGRMGSPGRREIGHGKLAWRALRPMLPTKEDFPYTIRLVSEITESNGAAAMATVCGSSLAMMDAGVPLVRPVSGIAMGLILEQDGFAVLSDILGDEDHLGDMDFKVAGTSEGLTSLQMDIKIAGITPAIMEQALAQAKEGRAHILGEMNKAMDAPRADVGDFAPKIETINIPTDKIREVIGSGGKVIREIVATTGAKVDINDDGVVKVSASDGAKIKAAIDWIKSITDEAEVGKIYDGKVVKVVDFGAFVNFFGAKDGLVHVSQISNERVAKPSDVLKEGQMVKVKLLGFDDRGKTKLSMKVVDQETGEDLSKKEAAAEEA
For the molecule B1, the partitioning ratio in assay [2] turned out to be 4.4; in assay [3] it was 5.7.

B2: PNPase-V104A/E224A/F233A-mCherry (enzyme)
chain: B1 chain with V104A, E224A, F233A, A439S, A440S, A441S
As for B2, in assay [2], the partitioning ratio was 1.
